From publication doi:10.1101/2020.08.02.233536 (bioRxiv, 2020)

Target: His-tagged SARS-CoV-2 RBD protein (binding studies) (SARS-CoV-2, UniProt P0DTC2)
Assay: BLI
Conditions: both partners purified

B1:  (antibody, V domains shown)
VH: QVQLVQSGAEVKKPGASVKVSCKASGYTFTSYYMHWVRQAPGQGLEWMGIINSSGGSTSYAQKFQGRVTMTRDTSTSTVYMELSSLRSEDTAVYYCARPPRNYYDSSGYYQRAEYFQHWGQGTLVTVSS
VL: DIQLTQSPSSLSASVGDRVTITCQASQDISNYLNWYQQRPGKAPKLLIYDASNLETGVPSRFSGSGSGTDFTFTISSLQPEDIATYYCQQYDNPPLTFGGGTKLEIK
notes: also called somatic revertant VH R100bS
  binding result: binds
